The values that follow come from patent publication US20210371516A1.

Where a chain is given by its changes, count along the chain named. Some results are limits rather than exact numbers.

The target in assay [1] is antigen on NCI-H187 classic small cell lung carcinoma cells (ATCC Number: CRL-5804) recognised by PTA-2358. The assay is described as follows: competition flow cytometry on NCI-H187 cells against mouse PTA-2358; CHO-K1-derived. On the technique in general: Flow cytometry measures light scatter and fluorescence of single cells or particles in a stream.
Assay [2] has the same target. The assay is described as follows: competition flow cytometry on NCI-H187 cells against mouse PTA-2358; NS0-derived.
Assay [3] concerns the target antigen on NCI-H187 classic small cell lung carcinoma cells (ATCC Number: CRL-5804) recognised by PTA-2357. The assay is described as follows: competition flow cytometry on NCI-H187 cells against mouse PTA-2357; NS0-derived.
Assay [4] shares this target. The assay is described as follows: competition flow cytometry on NCI-H187 cells against mouse PTA-2357; CHO-K1-derived.

B1: PTA-2358 VH1/VK1 IgG1 antibody (antibody, V domains shown)
VH: EVQLVQSGAELKKPGASVKLSCTASGFNIKDYYMHWVKQAPGQGLEWIGWIDPGNGDTECAPKFQGRATLTADTSINTAYLELSRLRSDDTAVYYCNAPYYSGSSHFDYWGQGTTVTVSS
VL: DIVLTQSPDSLAVSLGERATINCRASKSVSASGYSFLHWYQQKPGQPPKLLIYLASNLESGVPDRFSGSGSGTDFTLTISSLQEEDVATYYCQHSRELRTFGQGTKLEIK
Take B1: the Relative IC50 (fold of chimeric PTA-2358) in assay [1] is 1.09; in assay [2], 1.11.

B2: PTA-2358 VH3/VK3 IgG1 antibody (antibody, V domains shown)
VH: B1 VH with L11V, K38R
VL: B1 VL with L4M, E84A, T89V
In assay [1], B2 yielded a Relative IC50 (fold of chimeric PTA-2358) of 2.43.

B3: PTA-2358 VH4/VK1 IgG1 antibody (antibody, V domains shown)
VH: B1 VH with L11V, K38R, N77S
VL: B1 VL
For B3, the Relative IC50 (fold of chimeric PTA-2358) was determined as 1.48 in assay [1] and 2.65 in assay [2].

B4: PTA-2358 VH5/VK2 IgG1 antibody (antibody, V domains shown)
VH: B1 VH with L11V, L20V, K38R, L70I, N77S, L81M
VL: B1 VL with E84A
For B4, the results for the Relative IC50 (fold of chimeric PTA-2358) in assay [1] and in assay [2] were 1.68 and 1.11, respectively.

B5: PTA-2358 VH2/VK2 IgG1 antibody (antibody, V domains shown)
VH: B1 VH with L11V
VL: B1 VL with E84A
For B5, the results for the Relative IC50 (fold of chimeric PTA-2358) in assay [1] and in assay [2] were 1.29 and 1.03, respectively.

B6: PTA-2358 VH5/VK3 IgG1 antibody (antibody, V domains shown)
VH: B1 VH with L11V, L20V, K38R, L70I, N77S, L81M
VL: B1 VL with L4M, E84A, T89V
For the molecule B6, the Relative IC50 (fold of chimeric PTA-2358) in assay [1] is more than 3.

B7: PTA-2358 VH3/VK2 IgG1 antibody (antibody, V domains shown)
VH: B1 VH with L11V, K38R
VL: B1 VL with E84A
B7 returned a Relative IC50 (fold of chimeric PTA-2358) in assay [1] of 1.81.

B8: PTA-2358 VH3/VK1 IgG1 antibody (antibody, V domains shown)
VH: B1 VH with L11V, K38R
VL: B1 VL
B8: the Relative IC50 (fold of chimeric PTA-2358) in assay [1] came to 1.09; in assay [2], 1.12.

B9: PTA-2358 VH4/VK2 IgG1 antibody (antibody, V domains shown)
VH: B1 VH with L11V, K38R, N77S
VL: B1 VL with E84A
With B9, the Relative IC50 (fold of chimeric PTA-2358) in assay [1] was 1.68; in assay [2] it was 1.49.

B10: PTA-2358 VH2/VK3 IgG1 antibody (antibody, V domains shown)
VH: B1 VH with L11V
VL: B1 VL with L4M, E84A, T89V
B10 yielded a Relative IC50 (fold of chimeric PTA-2358) in assay [1] of more than 3.

B11: PTA-2358 VH4/VK3 IgG1 antibody (antibody, V domains shown)
VH: B1 VH with L11V, K38R, N77S
VL: B1 VL with L4M, E84A, T89V
The molecule B11 returned a Relative IC50 (fold of chimeric PTA-2358) in assay [1] of more than 3.

B12: PTA-2358 VH5/VK1 IgG1 antibody (antibody, V domains shown)
VH: B1 VH with L11V, L20V, K38R, L70I, N77S, L81M
VL: B1 VL
Take B12: the results for the Relative IC50 (fold of chimeric PTA-2358) in assay [1] and in assay [2] were 1.69 and 1.65, respectively.

B13: PTA-2358 VH1/VK2 IgG1 antibody (antibody, V domains shown)
VH: B1 VH
VL: B1 VL with E84A
Molecule B13 registered a Relative IC50 (fold of chimeric PTA-2358) in assay [1] of 2.38.

B14: PTA-2358 VH1/VK3 IgG1 antibody (antibody, V domains shown)
VH: B1 VH
VL: B1 VL with L4M, E84A, T89V
B14 showed a Relative IC50 (fold of chimeric PTA-2358) in assay [1] of 2.68.

B15: PTA-2358 VH2/VK1 IgG1 antibody (antibody, V domains shown)
VH: B1 VH with L11V
VL: B1 VL
Turning to B15, the results for the Relative IC50 (fold of chimeric PTA-2358) in assay [1] and in assay [2] were 1.28 and 1.03, respectively.

B16: PTA-2357 VH4/VK2 IgG1 antibody (antibody, V domains shown)
VH: QVQLVQSGAEVKKPGASVKVSCKGSGYPFTDYTIHWVRQAPGQGLEWIGHISTYSGNTNNNQKFKGRATMTVDKSTSTAYMELRSLRSDDTAVYYCARGDYYGSFYKFEYWGQGTTVTVSS
VL: DIKMTQSPSSLSASVGDRVTITCGASENIYGALNWFQRKPGKAPKLLIYGATNLADGMPSRFSGSGSGRDFTLTISSLQPEDFATYFCQNVLSIPYTFGQGTKLEIK
Consider B16, for which the Relative IC50 (fold of chimeric PTA-2357) worked out at 1.34 in assay [3] and 1.5 in assay [4].

B17: PTA-2357 VH1/VK2 IgG1 antibody (antibody, V domains shown)
VH: B16 VH with A9P, V11L, P41H, T91S, A92T
VL: B16 VL
As to B17, the Relative IC50 (fold of chimeric PTA-2357) worked out at 1.06 in assay [3] and 1.2 in assay [4].

B18: PTA-2357 VH3/VK2 IgG1 antibody (antibody, V domains shown)
VH: B16 VH with A92T
VL: B16 VL
As for B18, the Relative IC50 (fold of chimeric PTA-2357) was determined as 1.06 in assay [3] and 1.57 in assay [4].

B19: PTA-2357 VH2/VK2 IgG1 antibody (antibody, V domains shown)
VH: B16 VH with P41H, T91S, A92T
VL: B16 VL
As to B19, the results for the Relative IC50 (fold of chimeric PTA-2357) in assay [3] and in assay [4] were 1.16 and 1.36, respectively.

B20: PTA-2357 VH4/VK1 IgG1 antibody (antibody, V domains shown)
VH: B16 VH
VL: B16 VL with P40Q, K103Q
With B20, the Relative IC50 (fold of chimeric PTA-2357) in assay [4] was more than 3.

B21: PTA-2357 VH3/VK1 IgG1 antibody (antibody, V domains shown)
VH: B16 VH with A92T
VL: B16 VL with P40Q, K103Q
Turning to B21, the Relative IC50 (fold of chimeric PTA-2357) in assay [4] was more than 3.

B22: PTA-2357 VH2/VK3 IgG1 antibody (antibody, V domains shown)
VH: B16 VH with P41H, T91S, A92T
VL: B16 VL with K3Q
Consider B22, for which the Relative IC50 (fold of chimeric PTA-2357) in assay [3] is 1.23; in assay [4], 0.82.

B23: PTA-2357 VH5/VK3 IgG1 antibody (antibody, V domains shown)
VH: B16 VH with A68V
VL: B16 VL with K3Q
Regarding B23, in assay [4], the Relative IC50 (fold of chimeric PTA-2357) was more than 3.

B24: PTA-2357 VH5/VK1 IgG1 antibody (antibody, V domains shown)
VH: B16 VH with A68V
VL: B16 VL with P40Q, K103Q
Consider B24, for which, in assay [4], the Relative IC50 (fold of chimeric PTA-2357) was more than 3.

B25: PTA-2357 VH2/VK1 IgG1 antibody (antibody, V domains shown)
VH: B16 VH with P41H, T91S, A92T
VL: B16 VL with P40Q, K103Q
For the molecule B25, the Relative IC50 (fold of chimeric PTA-2357) in assay [4] was more than 3.

B26: PTA-2357 VH5/VK2 IgG1 antibody (antibody, V domains shown)
VH: B16 VH with A68V
VL: B16 VL
Take B26: the Relative IC50 (fold of chimeric PTA-2357) in assay [4] stood at 2.43.

B27: PTA-2357 VH3/VK3 IgG1 antibody (antibody, V domains shown)
VH: B16 VH with A92T
VL: B16 VL with K3Q
On to B27, for which, in assay [4], the Relative IC50 (fold of chimeric PTA-2357) amounted to 1.64.

B28: PTA-2357 VH1/VK3 IgG1 antibody (antibody, V domains shown)
VH: B16 VH with A9P, V11L, P41H, T91S, A92T
VL: B16 VL with K3Q
For the molecule B28, the Relative IC50 (fold of chimeric PTA-2357) in assay [4] was 2.

B29: PTA-2357 VH4/VK3 IgG1 antibody (antibody, V domains shown)
VH: B16 VH
VL: B16 VL with K3Q
Turning to B29, in assay [4], the Relative IC50 (fold of chimeric PTA-2357) was determined as 2.06.

B30: PTA-2357 VH1/VK1 IgG1 antibody (antibody, V domains shown)
VH: B16 VH with A9P, V11L, P41H, T91S, A92T
VL: B16 VL with P40Q, K103Q
Turning to B30, the Relative IC50 (fold of chimeric PTA-2357) in assay [4] was more than 3.
